# Measured values as given in publication PMC11984302.
# B1: extended TBA 1 annealed to Cy5 gap oligo (mixed)
# DNA 1: TCAGCTTGCGGAGATGCGATGGTTGGTGTGGTTGGATCGAGAAAAAGGTACGCCC
# DNA 2: GGGCGTACCTTTTTCTCGATATCGCATCTCCGCAAGCTGA
# Target: thrombin (human plasma, Sigma-Aldrich) (Homo sapiens, UniProt P00734;P00734 328-363;364-622)
# Test: EMSA; 1 nM aptamer, thrombin 0.1x-100x; SICS: thrombin in 1 M KCl (or 150 mM KCl), pH 7.5, 30 min incubation, 300 mV; gel: 16% Tris-Glycine; temperature not stated
binder,measurement,value
B1,binding result,binds
